Source: the nanobody polyreactivity screen of Harvey et al. (2022)

Assay: yeast display, Sf9 membrane polyspecificity reagent, FACS + sequencing; frameworks hold sequencing errors
Method in brief: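 Synthetic nanobody libraries on Saccharomyces cerevisiae BJ5465 were galactose-induced for 36–48 hours, stained 1 hour at 4 °C with 10% biotinylated, detergent-solubilized Sf9 membrane reagent and enriched on streptavidin microbeads. FACS then separated cells into low and high (top ~1%) gates by anti-HA (expression) and streptavidin (reagent binding) fluorescence. Genes were colony-PCR amplified, MiSeq 2 × 250 sequenced and CDR-length filtered. A clone's polyreactivity label is that of its gate of origin.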

Row | Sequence | polyreactivity (PSR sort gate)
1 | QVQLVESGGGLVQAGGSLRLSCAASGIIFPYYAMGWYRQAPGKERELVARITRRGGSTYYADSVKGRFTISRDNAKNTVYLQMNSLKPEDTAVYYCAAYAPYYRTMEYWGQGTQVTLSS | high polyreactivity
2 | QVQLVESGGGLVQAGGSLRLSCAASGIIFQDNAMGWYRQAPGKERELVATIDRGGDTYYADSVKGRFTISRDNAKNTVYLQMNSLKPEDTAVYYCAAVEFELRGDYWGQGTQVTVSS | low polyreactivity
3 | QVQLVESGGGLVQAGGSLRLSCAASGIIFQFYAMGWYRQAPGKERELVAAISRSGGITHYADSVKGRFTISRDNAKNTVYLQMNSLKPEDTAVYYCAAVRQAYPRLDYWGQGTQVTVSS | high polyreactivity
4 | QVQLVESGGGLVQAGGSLRLSCAASGIIFQFYAMGWYRQAPGKERELVAAISRSGGITHYADSVKGRFTISRDNAKNTVYLQMNSLKPEDTAVYYCNAVQPARFVGGFGTGVDYWGQGTQVTVSS | high polyreactivity
5 | QVQLVESGGGLVQAGGSLRLSCAASGIIFQHNAMGWYRQAPGKERELVAAISSNGGRTFYPDSVKGRFTISRDNAKNTVYLQMNSLKPEDTAVYYCNRQYPSRYGYWGQGTQVTVSS | high polyreactivity
6 | QVQLVESGGGLVQAGGSLRLSCAASGIIFQLNAMGWYRQAPGKERELVAAISSVGSTYYADSVKGRFTISRDNAKNTVYLQMNSLKPEDTAVYYCAAETYSTAHNAYFEIAYYWGQGTQVTVSS | high polyreactivity
7 | QVQLVESGGGLVQAGGSLRLSCAASGIIFQQYAMGWYRQAPGKERELVAAITYSGDGTYYADSVKGRFTISRDNAKNTVYLQMNSLKPEDTAVYYCAAYPRDPYKEYDYWGQGTQVTVSS | low polyreactivity
8 | QVQLVESGGGLVQAGGSLRLSCAASGIIFQRNDMGWYRQAPGKERELVASITSGGSTNYADSVKGRFTISRDNAKNTVYLQMNSLKPEDTAVYYCARVSVSDYDYWGQGTQVTVSS | low polyreactivity
9 | QVQLVESGGGLVQAGGSLRLSCAASGIIFRANAMGWYRQAPGKERELVAAISSSGGSTFYADSVKGRFTISRDNAKNTVYLQMNSLKPEDTAVYFCAAGRSKFAWSEYEYWGQGTQVSVSS | low polyreactivity
10 | QVQLVESGGGLVQAGGSLRLSCAASGIIFRDNAMGWYRQAPGKERELVAAIDSSGGTTYADSVKGRFTISRDNAKNTVYLQTHSLTPEDTAVYYCATEVYWTVSYYGYDYYGGNYYYWGQGTQVTVSS | low polyreactivity
11 | QVQLVESGGGLVQAGGSLRLSCAASGIIFRFNGMGWYRQAPGKEREFVAAISGGAGSTYYADSVKGRFTISRDNAKNTVYLQMNSLKPEDTAVYYCAAVWRTRWASGYYWGQGTQVTVSS | high polyreactivity
12 | QVQLVESGGGLVQAGGSLRLSCAASGIIFRFYAMGWYRQAPGKERELVARIRSRGGSTYYADSVKGRFTISRDNAKNTVYLQMNSLKPEDTAVYYCAAGAGYPYYWGQGTQVTVSS | high polyreactivity
13 | QVQLVESGGGLVQAGGSLRLSCAASGIIFRGNAMGWYRQAPGKERELVAAISSGGSTYYADSVKGRFTISRDNAKNRVYLQMNSLKPEDTAVYYCNARWYYWGTLYGSWGHGTQVTVSS | high polyreactivity
14 | QVQLVESGGGLVQAGGSLRLSCAASGIIFRGNAMGWYRQAPGKERELVAAMSKSGGRTYYADSVKGRFTISRDNAKNTVYLQMNSLKPEDTAVYYCAARRSTSYPAGNDYWGQGTQVTVSS | high polyreactivity
15 | QVQLVESGGGLVQAGGSLRLSCAASGIIFRGYVMGWYRQAPGKERELVAAISTSGGRTSYADSVKGRFTISRDNAKNTVYLQMNSLKPEDTAVYYCAARPLYSYSQWGYGYWGQGTQVTVSS | high polyreactivity
16 | QVQLVESGGGLVQAGGSLRLSCAASGIIFRLYAMGWYRQAPGKERELVAAISYRGGSTYYADSVKGRFTISRDNAKNTVYLQMNSLKPEDTAVYYCAGRNPRYSFYYWGQGTQVTVSS | high polyreactivity
17 | QVQLVESGGGLVQAGGSLRLSCAASGIIFRLYGMGWYIQAPGKEREFVATITWRGGRTNYADSVKGRFTISRDNAKNTVYLQMNSLKPEDTAVYYCAAGSAPSYWGGWYYERDYWGQGTQVTVSS | low polyreactivity
18 | QVQLVESGGGLVQAGGSLRLSCAASGIIFRNYAMGWYRQAPGKEREFVASITKRGGSTYYADSVKGRFTISRDNAKNTVYLQMNSLKPEDTAVYYCNTQWYRGRTEYGYWGQGTQVTVSS | high polyreactivity
19 | QVQLVESGGGLVQAGGSLRLSCAASGIIFRNYAMGWYRQAPGKERELVAAISRNGGSTYYADSVKGRFTISRDNAKNTVYLQMNSLKPEDTAVYYCAAVSPGTVTNGKSRDYWGQGTQVSVSS | high polyreactivity
20 | QVQLVESGGGLVQAGGSLRLSCAASGIIFRPYAMGWYRQAPGKERELVAAITGSGVSTYYADSVKGRFTISRDNAKNTVYLQMNSLKPEDTAVYYCAARYDVHYDGMDYWGQGTQVTVSS | low polyreactivity
21 | QVQLVESGGGLVQAGGSLRLSCAASGIIFRPYAMGWYRQAPGKEREMVAAITWSGTSTYYADSVKGRFTISRDNAKNTVYLQMNSLKPEDTAVYYCAATWSYGVSWYEYWGQGTQVTVSS | high polyreactivity
22 | QVQLVESGGGLVQAGGSLRLSCAASGIIFRRYAMGWYRQAPGKERELVAAISWSGGSTYYADSVKGRFTISRDNAKNTVYLQMNSLKPEDTAVYYCAAAAYTRDEYDYWGQGTQVTVSS | high polyreactivity

Row | Sequence | polyreactivity (PSR sort gate)
23 | QVQLVESGGGLVQAGGSLRLSCAASGIIFRRYAMGWYRQAPGKERELVAAITGSGGSTYYADSVKGRFTISRDNAKNTVYLQMNSLKPEDTAVYYCAAKGYPSRYSYGWYNYWGQGTQVTVSS | high polyreactivity
24 | QVQLVESGGGLVQAGGSLRLSCAASGIIFRRYAMGWYRQAPGKERQLVARISFRGGSTYYADSVKGRFTISRDNAKNTVYLQMNSLKPEDTAVYYCNRDPRYSKEVDGDYWGQGTQVTVSS | high polyreactivity
25 | QVQLVESGGGLVQAGGSLRLSCAASGIIFRRYAMGWYSQAPVKERELVAAITGSGGSPYYADSVKGRFTISRDNAKNTVYLQMNSLKPEDTAVYYCAAQSVLRFASSRYNSWGQGTQVTVSS | high polyreactivity
26 | QVQLVESGGGLVQAGGSLRLSCAASGIIFRSNAMGWYRQAPVKETELVAAITGRGTRTYFADSVKGRFTISRDYAKYRVYFQMNSLKPEDTAVYYCNKGQTRGMGYWGQGTQVTVSS | high polyreactivity
27 | QVQLVESGGGLVQAGGSLRLSCAASGIIFRSYTMGWYRQAPGKERELVASITRSGGITYYADSVKGRFTISRDNAKNTVYLQMNSLKPEDTAVYYCAARHRYYYQYRSDYWGQGTQVSVSS | high polyreactivity
28 | QVQLVESGGGLVQAGGSLRLSCAASGIIFRTNAMGWYRQAPGKERDFVAAISAGGTRTYYADSVKGRFTISRDNAKNTVYLQMNSLKPEDTAVYYCAARYPEYETEDDYWGQGTQVTVSS | high polyreactivity
29 | QVQLVESGGGLVQAGGSLRLSCAASGIIFRTYAMGWYRQAPGKERELVAAINSDGSTYYADSVKGRFTISRDNAKNTVYLQMNSLKPEDTAVYYCAAVVWRIHAYYWAVDGWYYYWGQGTQVTVSS | high polyreactivity
30 | QVQLVESGGGLVQAGGSLRLSCAASGIIFRVNTIGWDRQAPGKEREMVARITGAGNTYYADSVNGRCTISRDNAKNSVYLQMNSLKPKDTAVYYCAVREFDKRRVIYYYWGQGTQVTVLS | high polyreactivity
31 | QVQLVESGGGLVQAGGSLRLSCAASGIIFRVYAMGWYRQAPGKERELVAAITKGGGRTYYADSVKGRFTISRDNAKNTVYLQMNSLKPEDTAVYYCAARSSSSFEYWGQGTQVTVSS | high polyreactivity
32 | QVQLVESGGGLVQAGGSLRLSCAASGIIFRVYAMGWYRQAPGKERELVATITWSGGSTFYADSVKGRFTISRDNAKNTVYLQMNSLKPEDTAVYYCAKRGYVRSGLGRPYADDYWGQGTQVTVSS | low polyreactivity
33 | QVQLVESGGGLVQAGGSLRLSCAASGIIFRVYTMGWYRQAPGKERELVATIRTSGDSTYYADSVKGRFTISRDNAKNTVYLQMNSLKPEDTAVYYCAKRRNYWHYYWGQGTQVTVSS | high polyreactivity
34 | QVQLVESGGGLVQAGGSLRLSCAASGIIFRYYAMGWYRQAPGKERELVAAISSSGVSTYYADSVKGRFTISRDNAKNNVYLQMNSLKPEDTAVYYCAAVTTWRMDYWGQGTQVNVSS | high polyreactivity
35 | QVQLVESGGGLVQAGGSLRLSCAASGIIFRYYTMGWYRQAPGKERELVAAITQSSGRTYYADSVKGRFTISRDNAKNTVYLQMNCLIPEDTAVFYCNVRPLRSYRAVDYWGQGTQVTVSS | high polyreactivity
36 | QVQLVESGGGLVQAGGSLRLSCAASGIIFSDYAMGWYRQAPGKERELVAAISRNGGSTYYADSVKGRFTISRDNAKNTVYLQMNSLKPEDTAVYYCAATRRYRYNWGQGTQVTVSS | high polyreactivity
37 | QVQLVESGGGLVQAGGSLRLSCAASGIIFSDYAMGWYRQAPGKERELVAAITGGGSTYYADSVKGRFTISPDNAQNTVYLQMNSLKPEDTSVYYCNTDAWHETPVSGYSWGQCTQVTVSS | low polyreactivity
38 | QVQLVESGGGLVQAGGSLRLSCAASGIIFSFNAMGWYRQAPGKERELVAAITWRDGSTYYADSVKGRFTISRDNAKNTVYLQMNSLKPEDTAVYYCNADLLDISSYDGMDYWGQGTQVTVSS | low polyreactivity
39 | QVQLVESGGGLVQAGGSLRLSCAASGIIFSIYALGWYRPAAGKERELVAAITYSGGRTYYADSVKGRFTISRDNAKNSVYLQMNSLKPEDTAVYYCAAVGYGEYYWGQGTQVTVSS | high polyreactivity
40 | QVQLVESGGGLVQAGGSLRLSCAASGIIFSIYAMGLYRQAPGKERELVAVISRSSGSTYYADSVKGRFTISRYNAKNTVYLQMNSLKPEDTAVYYCAARKNRAYGYWGQGTQVTVSS | high polyreactivity
41 | QVQLVESGGGLVQAGGSLRLSCAASGIIFSQYAMGWYRQAPGKERELVASISSGGRTNYADSVKGRFTISRDNAKNTVYLQMNSLKPEDTAVYYCATRYRYKRYAASVQYDYWGQGTQVTVSS | high polyreactivity
42 | QVQLVESGGGLVQAGGSLRLSCAASGIIFSSYAMGWYRQAPGKERELVADISYTGGSTYYADSVKGRFTISRDNAKNTVYLQMNSLKPEDTAVYYSAAGVYLHYSVDYWGQGTQVTVSS | low polyreactivity
43 | QVQLVESGGGLVQAGGSLRLSCAASGIIFSSYVMGWYRQAPGKERELVAAISKSGARTSYADSVKGRFTISRDNAKNTVYLQMNSLKPEDTAVYYCAATYLLERPTSKHPRYDYWGQGTQVTVSS | low polyreactivity
